Measured values reported in patent US20230073034A1 (APRILBIO, published 2023).

T1: cell membrane CD40L expressed on D1.1 cells (UniProt P29965 1-261, limits assumed)
T1 sequence (looked up): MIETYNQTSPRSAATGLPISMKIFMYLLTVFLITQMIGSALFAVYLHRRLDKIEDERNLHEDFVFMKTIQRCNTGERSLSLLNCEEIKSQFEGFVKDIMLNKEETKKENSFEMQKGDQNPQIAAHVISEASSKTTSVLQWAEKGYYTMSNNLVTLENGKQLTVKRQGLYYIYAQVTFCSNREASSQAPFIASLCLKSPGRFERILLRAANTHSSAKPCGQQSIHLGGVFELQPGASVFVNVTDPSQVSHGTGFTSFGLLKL

T2: recombinant human CD40L (rhCD40L-his) (human, UniProt P29965 113-261, limits assumed)
T2 construct: Soluble recombinant form made by the applicant; also called rhCD40L antigen
T2 sequence (looked up): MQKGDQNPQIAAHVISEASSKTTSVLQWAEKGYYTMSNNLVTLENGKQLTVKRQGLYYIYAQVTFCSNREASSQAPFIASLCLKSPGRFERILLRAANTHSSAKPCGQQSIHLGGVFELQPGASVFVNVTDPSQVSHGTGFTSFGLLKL

B1: APB-A1, (anti-CD40L hu5c8 scFv)2-anti-HSA SL335 Fab (bispecific antibody)
heavy: DIVLTQSPATLSVSPGERATISCRASQRVSSSTYSYMHWYQQKPGQPPKLLIKYASNLESGVPARFSGSGSGTDFTLTISSVEPEDFATYYCQHSWEIPPTFGGGTKLEIKRGGGGSGGGGSGGGGSQVQLVQSGAEVVKPGASVKLSCKASGYIFTSYYMYWVKQAPGQGLEWIGEINPSNGDTNFNEKFKSKATLTVDKSASTAYMELSSLRSEDTAVYYCTRSDGRNDMDSWGQGTLVTVSSGGGGSGGGGSGGGGSQVQLVQSGGGPVKPGGSLRLSCAASGFMFRAYSMNWVRQAPGKGLEWVSSISSSGRYIHYADSVKGRFTISRDNAKNSLYLQMNSLRAEDTAVYYCARETVMAGKALDYWGQGTLVTVSSASTKGPSVFPLAPSSKSTSEGTAALGCLVKDYFPEPVTVSWNSGALTSGVHTFPAVLQSSGLYSLSSVVTVPSSSLGTQTYICNVNHKPSNTKVDKKVEPKSS
light: DIVLTQSPATLSVSPGERATISCRASQRVSSSTYSYMHWYQQKPGQPPKLLIKYASNLESGVPARFSGSGSGTDFTLTISSVEPEDFATYYCQHSWEIPPTFGGGTKLEIKRGGGGSGGGGSGGGGSQVQLVQSGAEVVKPGASVKLSCKASGYIFTSYYMYWVKQAPGQGLEWIGEINPSNGDTNFNEKFKSKATLTVDKSASTAYMELSSLRSEDTAVYYCTRSDGRNDMDSWGQGTLVTVSSGSTSGSGKPGSGEGSTKGDIVLTQSPGTLSLSPGETATLSCRASQSVGSNLAWYQQKPGQAPRLLIYGASTGATGVPARFSGSRSGTDFTLTITSLQPEDFATYYCQQYYSFLAKTFGQGTQLEIKRTVAAPSVFIFPPSDEQLKSGTASVVCLLNNFYPREAKVQWKVDNALQSGNSQESVTEQDSKDSTYSLSNTLTLSKADYEKHKVYACEVTHQGLSSPVTKSFNRGES
notes: No Fc; also called (anti-hu5c8 scFv)2-SL335; (anti-CD40L scFv)2-anti-HSA Fab
B2: APB-B1a, (anti-CD40L scFv)2-(anti-HSA SL335 Fab)-(anti-TNF-α Fv) (bispecific antibody)
chain 1: DIVLTQSPATLSVSPGERATISCRASQRVSSSTYSYMHWYQQKPGQPPKLLIKYASNLESGVPARFSGSGSGTDFTLTISSVEPEDFATYYCQHSWEIPPTFGGGTKLEIKRGGGGSGGGGSGGGGSQVQLVQSGAEVVKPGASVKLSCKASGYIFTSYYMYWVKQAPGQGLEWIGEINPSNGDTNFNEKFKSKATLTVDKSASTAYMELSSLRSEDTAVYYCTRSDGRNDMDSWGQGTLVTVSSGGGGSGGGGSGGGGSQVQLVQSGGGPVKPGGSLRLSCAASGFMFRAYSMNWVRQAPGKGLEWVSSISSSGRYIHYADSVKGRFTISRDNAKNSLYLQMNSLRAEDTAVYYCARETVMAGKALDYWGQGTLVTVSSASTKGPSVFPLAPSSKSTSEGTAALGCLVKDYFPEPVTVSWNSGALTSGVHTFPAVLQSSGLYSLSSVVTVPSSSLGTQTYICNVNHKPSNTKVDKKVEPKSSGGGGSGGGGSGGGGSEVQLVESGGGLVQPGGSLRLSCAASGYVFTDYGMNWVRQAPGKGLEWMGWINTYIGEPIYADSVKGRFTFSLDTSKSTAYLQMNSLRAEDTAVYYCARGYRSYAMDYWGQGTLVTVSS
chain 2: DIVLTQSPATLSVSPGERATISCRASQRVSSSTYSYMHWYQQKPGQPPKLLIKYASNLESGVPARFSGSGSGTDFTLTISSVEPEDFATYYCQHSWEIPPTFGGGTKLEIKRGGGGSGGGGSGGGGSQVQLVQSGAEVVKPGASVKLSCKASGYIFTSYYMYWVKQAPGQGLEWIGEINPSNGDTNFNEKFKSKATLTVDKSASTAYMELSSLRSEDTAVYYCTRSDGRNDMDSWGQGTLVTVSSGSTSGSGKPGSGEGSTKGDIVLTQSPGTLSLSPGETATLSCRASQSVGSNLAWYQQKPGQAPRLLIYGASTGATGVPARFSGSRSGTDFTLTITSLQPEDFATYYCQQYYSFLAKTFGQGTQLEIKRTVAAPSVFIFPPSDEQLKSGTASVVCLLNNFYPREAKVQWKVDNALQSGNSQESVTEQDSKDSTYSLSNTLTLSKADYEKHKVYACEVTHQGLSSPVTKSFNRGESGSTSGSGKPGSGEGSTKGDIQMTQSPSSLSASVGDRVTITCKASQNVGTNVAWYQQKPGKAPKALIYSASFLYSGVPYRFSGSGSGTDFTLTISSLQPEDFATYYCQQYNIYPLTFGQGTKVEIKR
B3: SL335 Fab (anti-human serum albumin Fab) (Fab, V domains shown)
VH: QVQLVQSGGGPVKPGGSLRLSCAASGFMFRAYSMNWVRQAPGKGLEWVSSISSSGRYIHYADSVKGRFTISRDNAKNSLYLQMNSLRAEDTAVYYCARETVMAGKALDYWGQGTLVTVSS
VL: DIVLTQSPGTLSLSPGETATLSCRASQSVGSNLAWYQQKPGQAPRLLIYGASTGATGVPARFSGSRSGTDFTLTITSLQPEDFATYYCQQYYSFLAKTFGQGTQLEIKR
notes: also called anti-HSA Fab (SL335)

Legend:
[1] = molecular target: T3, human serum albumin (HSA) (human, UniProt P02768 25-609); test: ELISA, HSA coated at 1 µg/ml, HRP goat anti-human Fd detection
Procedure: After blocking for 2 hours, washing was performed by repeatedly performing a process of completely removing the added buffer, adding each 300 μl of a buffer (PBS-T) containing 0.1% tween-20 PBS (pH 7.4), and then removing the buffer 3 times in total. After removing water remaining after the washing, the respective antibodies were serially diluted 10 folds at concentrations decreasing from 100 nM to 1.0×10⁻⁴ nM in a PBS pH 7.4 buffer (0.3% PBA) containing 0.3% bovine serum albumin and 0.1% tween-20, and each 100 μl of the diluted antibody samples were added to each well to be allowed to react at room temperature for 2 hours. After washing in the same manner as described above, HRP-conjugated goat anti-human Fd antibodies (Southern Biotechnology, Birmingham, Ala.) were diluted with a 0.3% PBA buffer in 1:4,000, and each 100 μl of the diluted antibody samples were added to each well to then be allowed to react at room temperature for 1 hour. To assess antigen-specific binding of the antibodies reacting after the washing, a TMB substrate (BD Bioscience, Franklin Lakes, N.J.) was added and reacted, and the absorbance was measured using a microplate spectrophotometer at A450 nm.
(§1) HRP-conjugated goat anti-human Fd antibodies were used as secondary antibodies.

[2] = molecular target: T4, recombinant human TNF-α protein (human, UniProt P01375 77-233); test: ELISA, recombinant human TNF-α coated at 1 µg/ml, HRP goat anti-human Fd detection
T4 construct: also called soluble TNF-α; recombinant soluble TNF-α protein
Procedure: After washing in the same manner as described above, HRP-conjugated goat anti-human Fd antibodies (Southern Biotechnology, Birmingham, Ala.) were diluted with a 0.3% PBA buffer in 1:4,000, and each 100 μl of the diluted antibody samples were added to each well to then be allowed to react at room temperature for 1 hour. To assess antigen-specific binding of the antibodies reacting after the washing, a TMB substrate (BD Bioscience, Franklin Lakes, N.J.) was added and reacted, and the absorbance was measured using a microplate spectrophotometer at A450 nm.
as §1

[3] = molecular target: T4, recombinant human TNF-α protein; test: cell-based or functional assay
[4] = molecular target: T1, cell membrane CD40L expressed on D1.1 …; test: cell-based or functional assay
[5] = molecular target: T2, recombinant human CD40L (rhCD40L-his); test: ELISA, CD40L coated at 1 µg/ml
[6] = molecular target: T4, recombinant human TNF-α protein; test: BLI (Octet RED), antigen on AR2G biosensor
[7] = molecular target: T3, human serum albumin (HSA); test: BLI (Octet RED), antigen on AR2G biosensor
[8] = molecular target: T2, recombinant human CD40L (rhCD40L-his); test: BLI (Octet RED), antigen on AR2G biosensor
[9] = molecular target: T2, recombinant human CD40L (rhCD40L-his); test: ELISA, recombinant human CD40L coated at 1 µg/ml, HRP goat anti-human Fd detection

T4 sequence (P01375 77-233 limits assumed): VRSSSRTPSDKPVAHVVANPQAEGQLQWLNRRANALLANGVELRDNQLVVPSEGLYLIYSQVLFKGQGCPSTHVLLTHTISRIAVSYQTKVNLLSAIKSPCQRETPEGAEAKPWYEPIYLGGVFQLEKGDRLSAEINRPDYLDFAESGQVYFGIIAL

Binder | EC50 (read off the curve) [1] [pM] | binding result [2] | IC50, SEAP response of HEK-Blue reporter cells + soluble TNF-α 10 ng/ml (FIG. 22B) [3] [pM] | IC50, inhibition of TNF-α mediated cytotoxicity on L929 mouse cells, with HSA (FIG. 21) [3] [pM] | percent inhibition, SEAP response of HEK-Blue reporter cells + D1.1 cells + soluble TNF-α together (FIG. 22C) [3] [%] | percent inhibition, SEAP response of HEK-Blue reporter cells + D1.1 cells + soluble TNF-α together (FIG. 22C) [4] [%] | fold lower binding capacity than anti-human CD40L IgG1 (ruplizumab) [5] [fold] | Kd [6] [pM] | koff [6] [s⁻¹] | kon [6] [M⁻¹ s⁻¹] | Kd [7] [pM] | koff [7] [s⁻¹] | kon [7] [M⁻¹ s⁻¹] | Kd [8] [pM] | koff [8] [s⁻¹] | kon [8] [M⁻¹ s⁻¹] | EC50 (read off the curve) [9] [pM] | EC50 (read off the curve) [2] [pM]
B1 | ~500 | no binding (tested: 100 nM) | – | – | – | – | – | – | – | – | – | – | – | – | – | – | – | –
B2 | ~500 | – | 3050 | 5300 | 100 | 100 | ~1.5 | 164 | 3.82e-05 | 230000 | 765 | 0.00042 | 549000 | 192 | 0.000113 | 590000 | ~200 | ~1000
B3 | ~300 | no binding (tested: 100 nM) | – | – | – | – | – | – | – | – | – | – | – | – | – | – | – | –
